For one assay, the system named is ryegrass plants. As to the kind of experiment: Root biomass analysis of ryegrass transformants. The note with it: approximately 6 weeks in glasshouse. The class given is in vivo. The procedure:
An equal number (typically 4-10) of tillers were taken from WT and ryegrass plants transformed with Arabidopsis PPD under a constitutive promoter. Tillers were planted into plastic grow bags containing potting mix and pruned to be of equal height. […] The increase in root biomass was quantified by washing the roots under running water then removing the attached above ground portion (leaves and stems) and drying the roots at 65° C. for 48 hr then weighing the dry weights (Table 2).
An equal number (typically 4-10) of tillers were taken from WT and ryegrass plants transformed with Arabidopsis PPD under one of three root promoters. Tillers were planted into plastic grow bags containing potting mix and pruned to be of equal height. […] The increase in root biomass was quantified by washing the roots under running water then removing the attached above ground portion (leaves and stems) and drying the roots at 65° C. for 48 hr then weighing the dry weights (Table 3 and Table 4)

Assay [1] has as its system alfalfa (variety USD5) plants. Nature of the assay: Root biomass analysis of alfalfa transformants. It is filed as in vivo. Particulars: constitutive promoter, approximately 6 weeks in growth cabinet. The protocol:
Cuttings of approximately equal size were taken from WT and alfalfa (variety USD5) plants transformed with Arabidopsis PPD under a constitutive promoter. Cuttings were planted into plastic grow bags containing potting mix. […] The increase in root biomass was quantified by washing the roots under running water (these were photographed, FIG. 12) then the attached above ground portion (leaves and stems) was removed and the roots dried at 65° C. for 48 hr then weighed Table 5.

For assay [2], the system named is PEAPOD deletion mutant Δppd Arabidopsis thaliana ecotype Landsberg erecta. As to the kind of experiment: Complementation of the Arabidopsis Δppd mutant leaf phenotype. The class given is in vivo. Particulars: optimized PEAPOD coding sequence under CaMV35s promoter, seedlings (FIG. 13). The text has this: The functionality of any PEAPOD sequence can be confirmed by complementation of the Arabidopsis Δppd mutant leaf phenotype. Complementation of the Arabidopsis Δppd mutant leaf phenotype was first used to identify the Arabidopsis PPD gene (White 2006). This was seen by a restoration of the wild type flattened leaf phenotype and normal rosette shape as opposed to the domed leaf and the twisting of the rosette to a “propeller” phenotype.
Constructs above can be transformed into Arabidopsis by the floral dip infiltration method (Clough and Bent, 1998 Plant J 16, 735-43). The Δppd line is transformed to express the PPD polypeptides by standard techniques. Transgenic plants are confirmed by standard PCR analysis techniques with a combination of transgene-specific and T-DNA primers.
Complementation of the Δppd line to produce a wild-type leaf and rosette phenotype in T1 seedlings (the off-spring of the infiltrated plant) confirms PEAPOD functionality of the introduced gene, which can be shown in photographs.

Another assay has as its target T1, BZR1 (Arabidopsis thaliana, UniProt Q8S307).
T1 construct: expressed in transfected cells; host or cells: yeast strain MaV203
T1 sequence (Q8S307 with tags, fused parts or gaps): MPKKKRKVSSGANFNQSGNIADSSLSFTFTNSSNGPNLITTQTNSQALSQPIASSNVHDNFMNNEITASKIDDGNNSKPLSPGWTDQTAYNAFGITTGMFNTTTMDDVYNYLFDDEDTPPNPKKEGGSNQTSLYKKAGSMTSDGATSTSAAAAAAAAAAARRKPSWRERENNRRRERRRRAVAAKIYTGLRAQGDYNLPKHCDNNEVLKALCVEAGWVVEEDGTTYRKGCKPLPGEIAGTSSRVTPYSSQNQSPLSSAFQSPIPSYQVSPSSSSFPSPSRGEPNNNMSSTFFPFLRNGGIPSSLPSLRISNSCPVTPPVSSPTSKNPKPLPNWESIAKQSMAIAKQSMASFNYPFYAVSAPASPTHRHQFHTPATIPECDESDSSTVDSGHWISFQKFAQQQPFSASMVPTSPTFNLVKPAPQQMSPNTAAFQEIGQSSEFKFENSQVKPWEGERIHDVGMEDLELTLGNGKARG
Nature of the assay: Yeast two hybrid (Y2H) interaction with BZR1. The note with it: yeast strain MaV203. It is filed as binding.

Another assay deals with T2, NINJA (Arabidopsis thaliana, UniProt Q9SV55).
T2 construct: expressed in transfected cells; host or cells: Nicotiana benthamiana leaves (Agrobacterium infiltration)
Nature of the assay: BiFC interaction with NINJA in Nicotiana benthamiana leaves. The class given is cell-based. Particulars: in planta. The source says: The binary BiFC-Gateway YFP vectors pDEST-VYNE(R)^GW (Venus aa 1-173) and pDEST-VYCE(R)^GW (Venus aa 156-239) with N-terminal fusions, were used to construct the following vectors; pDESTnYFP-BZR1, pDESTnYFP-NINJA, pDESTnYFP-PPD1, pDESTcYFP-BZR1, pDESTcYFP-PPD1, pDESTcYFP-PPD1Δppd, pDESTcYFP-PPD1Δtify and pDESTcYFP-PPD1Δjas*. […] Plasmids for co-immunoprecipitation: A synthesised DNA construct encoding PPD1 with a 3×c-myc C-terminal fusion was sub-cloned into pRSh1 to produce pRSh1-PPD1-3×c-myc, while the NINJA cDNA sequence was sub-cloned into pB7FWG2,0 (Karimi et al 2002, Trends Plant Sci. 7, 193-195) to construct pB7FWG2-NINJA-GFP.
For infiltration Agrobacterium tumefaciens GV3101 strains containing the binary vectors were re-suspended from plates and prepared for transformation as described for the LUC assay. All YFP and expression strains were mixed in ratios of 1:1 (vol/vol) with the addition of strain P19 at 1/10th volume. Five leaf discs were sampled from each infiltrated leaf after 40 h. Two hours prior to sampling for microscopic fluorescence observations leaves were infiltrated with a 1 μg/ml DAPI solution to stain nuclei. YFP fluorescence and DAPI staining was detected using an Olympus Fluoview FV10i confocal laser scanning microscope. Each experiment was repeated twice.

Data on one molecule can be found in patent US10337022B2, “Methods of increasing root biomass in plants” (Agresearch Limited, priority 2014, dated 2019).

T2 sequence (Q9SV55 with tags, fused parts or gaps): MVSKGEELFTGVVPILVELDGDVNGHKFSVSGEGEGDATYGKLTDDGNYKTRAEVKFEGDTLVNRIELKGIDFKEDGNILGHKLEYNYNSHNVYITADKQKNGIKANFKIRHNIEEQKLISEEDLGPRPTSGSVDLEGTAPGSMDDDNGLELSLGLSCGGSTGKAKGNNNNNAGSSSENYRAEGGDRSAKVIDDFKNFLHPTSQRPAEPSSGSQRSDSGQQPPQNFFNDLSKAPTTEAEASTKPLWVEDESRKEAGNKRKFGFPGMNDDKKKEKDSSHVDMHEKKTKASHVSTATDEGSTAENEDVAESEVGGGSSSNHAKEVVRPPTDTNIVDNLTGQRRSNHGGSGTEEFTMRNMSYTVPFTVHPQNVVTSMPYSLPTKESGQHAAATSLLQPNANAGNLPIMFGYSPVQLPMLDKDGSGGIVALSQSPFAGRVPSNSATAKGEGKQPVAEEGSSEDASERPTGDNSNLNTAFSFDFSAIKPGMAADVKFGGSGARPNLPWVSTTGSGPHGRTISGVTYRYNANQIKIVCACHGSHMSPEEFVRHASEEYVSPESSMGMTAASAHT
Description for BZR1: Combinations of bait and prey constructs were used to co-transform yeast strain MaV203 (Invitrogen), with selection on synthetic dropout (SD) SD/-Leu/-Trp agar plates. Transformed strains were tested for interactions using 10 μl droplets of 1 in 10 and 1 in 100 dilutions on SD/-Leu/-Trp/-His plates with different concentrations of 3-aminotriazol (3-AT) (Sigma).

B1: Arabidopsis PPD: Arabidopsis thaliana PEAPOD 1 protein, At4g14713, SEQ ID NO: 1 (protein, listed as Arabidopsis thaliana)
chain: MDVGVSPAKSILAKPLKLLTEEDISQLTREDCRKFLKDKGMRRPSWNKSQAIQQVLSLKALYEPGDDSGAGIFRKILVSQPVNPPRVTTTLIEPSNELEACGRVSYPEDNGACHRMDSPRSAEFSGGSGHFVSEKDGHKTTISPRSPAETSELVGQMTIFYSGKVNVYDGIPPEKARSIMHFAANPIDLPENGIFASSRMISKLISKEKMMELPQKGLEKANSSRDSGMEGQANRKVSLQRYREKRKDRKFSKAKKCPGVASSSLEMFLNCQPRMKAAYSQNLGCTGSPLHSQSPESQTKSPNLSVDLNSEGI
As for B1, the “root growth beyond the grow bag compared to WT plants” value (in the assay with ryegrass plants (constitutive promoter); in the assay with ryegrass plants (one of three root promoters); in assay [1]) was “increase in root biomass/growth/length/branching” in each case. Also, in assay [2], the “PEAPOD functionality by complementation of Δppd mutant” value is listed as “functionally equivalent”. The “Y2H direct interaction with BZR1” value with BZR1 is “no direct interaction”. For the same molecule, the “BiFC interaction with NINJA” value with NINJA is “interacted with NINJA in plants”.
